Blank lines part the entries; values can stand above or below the binder they belong to.
B1: Labeled CDC-37 (*CDC-37) (natural protein, nematode, UniProt O02108 1-370, looked up)
chain: MPIDYSKWKDIEVSDDEDDTHPNIDTPSLFRWRHQARLERMAEKKMEQEKIDKEKGTTSKKMEELEKKLAAADVTDKSDIQKQIDEVKAQEEAWRKKEAELEEKERLEPWNVDTIGHEAFSTSRINKITEKKPQAPKTDEEDTHAMSTFFETHESLLEKMAVLKNGAKSTELFLAEHPHMASEYTANWLTIEALNAAIDFNEEKMKTMAEQCIIIQYLLELSKSLNAVATNTTVQKQFFKKFEAAEPVYMKHYQDEVKAFEDRLRTRAQTKRDAAMEEAEAEEKAERMKSAPGGIDPQEVFEQLPEEMRKCFEAHDIEALKGVAQKMDEEVFKYHFDRCIASGLWVPGKADDDDDDEEAAPAEEEPTTSS
modifications: ATTO 488 C5-maleimide at its cysteine residues
notes: CDC-37, kinase-specific Hsp90 cofactor of nematodes; same protein as m1, labeled at cysteines; The methods name ATTO 488 C5-maleimide, the results call the label AlexaFluor 488; also called fluorescently labeled CDC-37; AlexaFluor 488-labeled CDC-37
B3: DNJ-13 (natural protein)
chain: not shown
notes: DNJ-13, cytosolic Hsp40-like J domain protein of C. elegans; cDNA in pET28b after the N-terminal His6 tag; called full-length in the results; also called full-length DNJ-13; DNJ-13 dimer; source: E. coli BL21-CodonPlus(DE3)RIL, purified (HisTrap FF, ResourceS ion exchange, Superdex 75 SEC)

Assays:
HSP-90 = target: T1, HSP-90 (nematode, UniProt Q18688 1-702); experiment: AUC; sedimentation velocity with fluorescence detection; 300 nM *CDC-37 with or without 2 µM binding partners; 42,000 rpm, 20 °C; 40 mM HEPES/KOH pH 7.5, 20 mM KCl, 1 mM DTT, 5 mM MgCl2; with and without ATPγS for HSP-90; conditions: both partners purified
T1 construct: HSP-90 of nematodes, the chaperone for which CDC-37 acts as co-chaperone; the construct is not described

DNJ-13 = target: B3; experiment: AUC; sedimentation velocity with UV/Vis absorbance, non-labeled proteins, 0.5 mg/ml protein; 10 µM DNJ-13 with substoichiometric, equal or excess CDC-37; 2DSA analysis in UltraScan III; conditions: both partners purified
[1] = target: the molecule itself; experiment: cross-linking; isotope labeled BS3-H12/D12 and DSSG-H6/D6; 16 µM DNJ-13 and 16 µM CDC-37; bands cut from SDS-PAGE, tryptic digest, nanoLC-ESI-MS/MS; crosslinks identified with xMASS and pLink2.0
Labeled CDC-37 (*CDC-37) = target: B1; experiment: AUC; fluorescence AUC titration, 100 nM *CDC-37 with 0-10 µM DNJ-13; sedimentation coefficients against DNJ-13 concentration fitted with a Michaelis-Menten function; approximate KD; conditions: both partners purified

DNJ-13, sequence (Q20774 entry or part of it): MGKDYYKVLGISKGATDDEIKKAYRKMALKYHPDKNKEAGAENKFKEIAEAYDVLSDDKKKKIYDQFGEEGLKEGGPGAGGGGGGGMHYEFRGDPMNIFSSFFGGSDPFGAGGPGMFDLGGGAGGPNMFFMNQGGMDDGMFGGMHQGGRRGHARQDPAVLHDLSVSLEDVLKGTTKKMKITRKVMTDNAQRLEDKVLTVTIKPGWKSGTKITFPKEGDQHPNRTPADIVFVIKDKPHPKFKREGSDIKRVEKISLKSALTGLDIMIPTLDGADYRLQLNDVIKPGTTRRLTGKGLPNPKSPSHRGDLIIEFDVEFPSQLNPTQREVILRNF

Binder: B1
binding result (HSP-90): binds

stoichiometry N (DNJ-13): 1 CDC-37 per DNJ-13 dimer
B2: CDC-37 (natural protein, nematode, UniProt O02108 1-370, looked up)
chain: MPIDYSKWKDIEVSDDEDDTHPNIDTPSLFRWRHQARLERMAEKKMEQEKIDKEKGTTSKKMEELEKKLAAADVTDKSDIQKQIDEVKAQEEAWRKKEAELEEKERLEPWNVDTIGHEAFSTSRINKITEKKPQAPKTDEEDTHAMSTFFETHESLLEKMAVLKNGAKSTELFLAEHPHMASEYTANWLTIEALNAAIDFNEEKMKTMAEQCIIIQYLLELSKSLNAVATNTTVQKQFFKKFEAAEPVYMKHYQDEVKAFEDRLRTRAQTKRDAAMEEAEAEEKAERMKSAPGGIDPQEVFEQLPEEMRKCFEAHDIEALKGVAQKMDEEVFKYHFDRCIASGLWVPGKADDDDDDEEAAPAEEEPTTSS
notes: CDC-37, kinase-specific Hsp90 cofactor of nematodes; cDNA in pET28b after the N-terminal His6 tag; called full-length in the results; Cleavage of the His6 tag is not mentioned; also called full-length CDC-37; FL; source: E. coli BL21-CodonPlus(DE3)RIL, purified (HisTrap FF, ResourceS ion exchange, Superdex 75 SEC)

Binder: B3
stoichiometry N [1]: 2 | Kd (Labeled CDC-37 (*CDC-37)): ~3000 nM
